We go through 11 substances from patent US20250320281A1.

As usually defined, the IC50 is the midpoint of a concentration-inhibition curve. A high value points to lower potency.

Common to all, as to test: cell-based or functional assay
The target in experiment [1] is HIV-1 92RW020 envelope glycoprotein (Env) on pseudovirus (HIV-1).
Experiment [2] addresses HIV-1 Env of pseudovirus MGRM-AG-013 (clade CRF_AG) (HIV-1).
The target in experiment [3] is HIV-1 Env of pseudovirus MGRM-F1-012 (HIV-1).
The target in experiment [4] is HIV-1 Env of pseudovirus MGRM-G-013 (HIV-1, clade G isolate MGRM-G-013).
For experiment [5], the target named is HIV-1 envelope glycoprotein (Env) of isolate MGRM-A-012, clade A (HIV-1).
Experiment [6] concerns the target HIV-1 Env of pseudovirus 92TH021 (clade CRF01_AE) (HIV-1).
The target of experiment [7] is HIV-1 93IN905 Env on pseudotyped virus (HIV-1 isolate 93IN905).
Experiment [8] deals with HIV-1 94UG103 Env on pseudotyped virus (HIV-1 isolate 94UG103).
In experiment [9] the target is HIV-1 IAVI_C22 Env on pseudotyped virus (HIV-1 isolate IAVI_C22).
Experiment [10] concerns the target HIV-1 JR-CSF Env on pseudotyped virus (HIV-1 isolate JR-CSF) (UniProt P20871).
Experiment [11] deals with HIV-1 NL43 Env on pseudotyped virus (HIV-1 NL43).
Experiment [12] has as its target HIV-1 Env of isolate 92RW008 (subtype A) (HIV-1).
The target in experiment [13] is HIV-1 Env of isolate 92UG031 (subtype A) (HIV-1).
The target of experiment [14] is HIV-1 Env of isolate 92UG037 (subtype A) (HIV-1).
In experiment [15] the target is HIV-1 Env of isolate 92WR009 (subtype A) (HIV-1).
Experiment [16] deals with HIV-1 Env of isolate 92WR021 (subtype A) (HIV-1).
Experiment [17] concerns the target HIV-1 Env of isolate 92WR024 (subtype A) (HIV-1).
Experiment [18] deals with HIV-1 Env of isolate 92WR026 (subtype A) (HIV-1).
Experiment [19] deals with HIV-1 Env of isolate 93UG077 (subtype A) (HIV-1).
Experiment [20] addresses HIV-1 Env of isolate 93WR029 (subtype A) (HIV-1).
The target in experiment [21] is HIV-1 Env of isolate 94 KE 105 (subtype AC) (HIV-1).
The target in experiment [22] is HIV-1 Env of isolate 94UG103 (subtype A) (HIV-1).
Experiment [23] addresses HIV-1 envelope glycoprotein (Env) of isolate 92BR020 (HIV-1).
Experiment [24] concerns the target HIV-1 envelope glycoprotein (Env) of isolate 93TH305 (HIV-1).
Experiment [25] concerns the target HIV-1 envelope glycoprotein (Env) of isolate APV_13 (HIV-1).
Experiment [26] deals with HIV-1 envelope glycoprotein (Env) of isolate APV_17 (HIV-1).
For experiment [27], the target named is HIV-1 envelope glycoprotein (Env) of isolate CAAN.A2 (HIV-1).
Experiment [28] deals with HIV-1 envelope glycoprotein (Env) of isolate JR-FL (HIV-1).
The target of experiment [29] is HIV-1 envelope glycoprotein (Env) of isolate MGRM-Chronic-B-001 (HIV-1).
For experiment [30], the target named is HIV-1 envelope glycoprotein (Env) of isolate MGRM-Chronic-B-004 (HIV-1).
The target in experiment [31] is HIV-1 envelope glycoprotein (Env) of isolate MGRM-Chronic-B-008 (HIV-1).
Experiment [32] deals with HIV-1 Env of isolate 92RW008 (HIV-1).
The target of experiment [33] is HIV-1 Env of isolate MGRM-C-001 (subtype C) (HIV-1).
The target of experiment [34] is HIV-1 Env of isolate SC422661.8 (subtype B) (HIV-1).
Experiment [35] concerns the target HIV-1 Env of isolate MGRM-F1-022 (HIV-1).

4970_K22 (PGT-144) (antibody), sequence (VH): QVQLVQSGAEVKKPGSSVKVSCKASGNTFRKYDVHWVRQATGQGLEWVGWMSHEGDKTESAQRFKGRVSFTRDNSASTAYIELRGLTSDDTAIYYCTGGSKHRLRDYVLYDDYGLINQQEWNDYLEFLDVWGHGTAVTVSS
4970_K22 (PGT-144) (antibody), sequence (VL): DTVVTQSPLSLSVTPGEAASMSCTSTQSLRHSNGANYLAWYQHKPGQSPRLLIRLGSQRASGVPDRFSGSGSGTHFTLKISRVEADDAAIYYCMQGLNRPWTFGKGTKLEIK
1443_C16 (PG16) (TCN-116) (antibody), sequence (VH): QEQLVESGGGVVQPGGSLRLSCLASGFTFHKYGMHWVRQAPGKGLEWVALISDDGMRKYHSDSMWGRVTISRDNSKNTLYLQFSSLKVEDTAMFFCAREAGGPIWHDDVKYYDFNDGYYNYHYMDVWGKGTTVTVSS
1443_C16 (PG16) (TCN-116) (antibody), sequence (VL): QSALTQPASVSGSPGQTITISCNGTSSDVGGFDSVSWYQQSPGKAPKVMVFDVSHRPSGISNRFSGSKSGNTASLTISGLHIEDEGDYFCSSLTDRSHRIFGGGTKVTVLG

On to 2F5 (antibody), for which the IC50, pseudovirus neutralization in [1] was 3.37 µg/mL. Further, the half-maximal inhibitory concentration (IC50) in [2] came out at 1.79 µg/mL. Also, the results for the IC50 (µg/ml), pseudovirus neutralization in experiment [3], in experiment [4] and in experiment [5] were more than 50 µg/mL, 0.59 µg/mL and 2.36 µg/mL, respectively.
2G12 (antibody) registered an IC50, pseudovirus neutralization in [1] of 0.56 µg/mL. Also, the IC50 in experiment [6] is more than 50 µg/mL; in [2], 0.95 µg/mL. The IC50 (µg/ml), pseudovirus neutralization was 1.81 µg/mL in [3], more than 50 µg/mL in [4] and more than 50 µg/mL in experiment [5].
As for 4E10 (antibody), in experiment [1], the IC50, pseudovirus neutralization came to 3.38 µg/mL. Moreover, the concentration for half-maximal inhibition (IC50) in experiment [6] turned out to be 1.17 µg/mL; in experiment [2], 2.61 µg/mL. In addition, the results for the IC50 (µg/ml), pseudovirus neutralization in experiment [3], in [4] and in [5] were 0.37 µg/mL, 1.15 µg/mL and 4.27 µg/mL, respectively.
Turning to 1443_C16 (PG16) (TCN-116) (antibody), the IC50, pseudovirus neutralization in experiment [1] worked out at 0.004 µg/mL. The Neutralizing Antibody Assay: IC50; Virus/Ab Incubation 1 hour in experiment [7] was 0.33 µg/mL; in experiment [8], 0.0211 µg/mL; in experiment [9], 0.114 µg/mL; in experiment [10] it was less than 0.0025 µg/mL; in [11], less than 0.0025 µg/mL. Moreover, the Neutralizing Antibody Assay: IC50; Virus/Ab Incubation 18 hour in experiment [7] is 0.255 µg/mL; in [8], 0.0085 µg/mL; in experiment [9], 0.106 µg/mL; in [10], less than 0.0025 µg/mL; in experiment [11] it was 4.99 µg/mL. In addition, the IC50 was 0.1 µg/mL in [6] and 0.31 µg/mL in experiment [2]. Besides, the IC50 (µg/ml), pseudovirus neutralization in [3] was 0.003 µg/mL; in [4], more than 50 µg/mL; in experiment [5], 20.7 µg/mL.
As for 1495_C14 (PGC14) (antibody), the IC50, pseudovirus neutralization in [1] turned out to be 28.6 µg/mL. Further, the Neutralizing Antibody Assay: IC50; Virus/Ab Incubation 1 hour is more than 50 µg/mL in experiment [7]; more than 50 µg/mL in [8]; more than 50 µg/mL in experiment [9]; more than 50 µg/mL in experiment [10]; 0.35 µg/mL in [11]. Further, the Neutralizing Antibody Assay: IC50; Virus/Ab Incubation 18 hour was 0.146 µg/mL in experiment [7]; more than 50 µg/mL in [8]; 13.4 µg/mL in experiment [9]; more than 50 µg/mL in experiment [10]; 0.15 µg/mL in experiment [11]. The IC50 in experiment [6] and in experiment [2] was more than 50 µg/mL each time. For the same substance, the IC50 (µg/ml), pseudovirus neutralization in experiment [3], in experiment [4] and in experiment [5] was more than 50 µg/mL throughout.
With 1496_C09 (PG9) (TCN-109) (antibody), in experiment [1], the IC50, pseudovirus neutralization was 0.0637 µg/mL. For the same substance, the Neutralizing Antibody Assay: IC50; Virus/Ab Incubation 1 hour in [7] was 0.144 µg/mL; in experiment [8], 0.334 µg/mL; in experiment [9] it was 24.9 µg/mL; in experiment [10], less than 0.0025 µg/mL; in [11] it was 0.294 µg/mL. Further, the Neutralizing Antibody Assay: IC50; Virus/Ab Incubation 18 hour in [7] is 0.0619 µg/mL; in experiment [8], 0.0942 µg/mL; in experiment [9], 2.11 µg/mL; in experiment [10] it was less than 0.0025 µg/mL; in experiment [11] it was 38 µg/mL. Further, the figures for the IC50 in experiment [6] and in experiment [2] were 0.09 µg/mL and 0.23 µg/mL, respectively. Moreover, the IC50 (µg/ml), pseudovirus neutralization in experiment [3] stood at 0.01 µg/mL; in [5] it was 11.2 µg/mL.
Consider 4970_K22 (PGT-144) (antibody), for which the IC50 (µg/mL), pseudovirus neutralization in experiment [12] was more than 50 µg/mL; in experiment [13] it was 2.17 µg/mL; in experiment [14], 8.24 µg/mL; in experiment [15], 0.893 µg/mL; in experiment [16], more than 50 µg/mL; in experiment [17], 16.3 µg/mL. Moreover, the IC50 (µg/mL), pseudovirus neutralization in [18] is 32.7 µg/mL; in experiment [19] it was more than 50 µg/mL; in experiment [20], 4.39 µg/mL; in experiment [21], 0.29 µg/mL; in experiment [22], more than 50 µg/mL; in experiment [23], 44 µg/mL. The IC50 (µg/mL), pseudovirus neutralization in experiment [24] was more than 50 µg/mL; in experiment [25] it was more than 50 µg/mL; in [26], 10.3 µg/mL; in experiment [27], more than 50 µg/mL; in experiment [28], more than 50 µg/mL; in experiment [29], more than 50 µg/mL. The IC50 (µg/mL), pseudovirus neutralization in experiment [30] was 9.41 µg/mL; in experiment [31], more than 50 µg/mL.
Substance 5136_H01 (PGT-131) (antibody) yielded an IC50 in experiment [32] of 1.01 µg/mL. The IC50 neutralization in experiment [33] and in [34] was more than 50 µg/mL each time.
In [32], 5147_N06 (PGT-130) (antibody) came in with an IC50 of 0.089 µg/mL. The IC50 neutralization in [33] and in experiment [34] was more than 50 µg/mL in each case.
For the substance VRC01 (antibody), the IC50 (µg/mL), pseudovirus neutralization in experiment [12] came to 0.037 µg/mL; in [13] it was 0.469 µg/mL; in experiment [14], 0.245 µg/mL; in experiment [15], 0.187 µg/mL; in experiment [16], 0.066 µg/mL; in experiment [17] it was 0.327 µg/mL. Also, the IC50 (µg/mL), pseudovirus neutralization in [19] was 0.097 µg/mL; in experiment [20] it was 1.57 µg/mL; in [21], 0.499 µg/mL; in experiment [22], 0.285 µg/mL; in experiment [23], 0.29 µg/mL; in experiment [24], 0.243 µg/mL. Further, the IC50 (µg/mL), pseudovirus neutralization in experiment [25] was 0.657 µg/mL; in experiment [26], 0.477 µg/mL; in experiment [27], 0.722 µg/mL; in experiment [28] it was 0.034 µg/mL; in experiment [29] it was 0.066 µg/mL; in experiment [30], 0.055 µg/mL. For the same substance, the IC50 (µg/mL), pseudovirus neutralization in [31] was determined as 0.155 µg/mL. In experiment [35], this substance returned an IC50 of 0.055 µg/mL.
b12 (antibody) registered an IC50, pseudovirus neutralization in experiment [1] of more than 50 µg/mL. This substance also displayed a concentration for half-maximal inhibition (IC50) in experiment [2] of more than 50 µg/mL. The IC50 (µg/ml), pseudovirus neutralization in [3], in experiment [4] and in [5] was more than 50 µg/mL in each case.
